According to patent publication CN113045647A (NANJING LEGEND BIOTECH CO LTD, dated 2021):

Target: SARS-CoV-2-RBD(6×His融合蛋白，来自金斯瑞生物公司) (SARS-CoV-2, UniProt P0DTC2 319-541)
Assay: ELISA, E. coli expression supernatant on coated SARS-CoV-2-RBD His

B1: 人源Fab抗体AS182561 (Fab, E. coli expression supernatant) (Fab, V domains shown, not shown: large carriers)
VH: EVQLVESGGGLVQPGGSLRLSCAASGFNIYSSYMHWVRQAPGKGLEWVASISPSYSYTSYADSVKGRFTISADTSKNTAYLQMNSLRAEDTAVYYCARYSYYGMDYWGQGTLVTVSA
VL: DIQMTQSPSSLSASVGDRVTITCRASQSVSSAVAWYQQKPGKAPKLLIYSASSLYSGVPSRFSGSRSGTDFTLTISSLQPEDFATYYCQQPPWHGLITFGQGTKVEIK
  binding result: binds
